Measured values: patent publication US20150369821A1 (Pieris, published 2015)

Experiments:
[1] = molecular target: T1, non-modified Hepcidin-25 (human, not fully specified); assay: cell-based or functional assay
T1 peptide: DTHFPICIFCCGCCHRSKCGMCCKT

[2] = molecular target: T1, non-modified Hepcidin-25; assay: competition ELISA, non-modified Hepcidin-25 in solution (25 pM)

B1: hepcidin-specific lipocalin mutein of SEQ ID NO: 8 (designed binder)
chain: QDSTSDLIPAPPLSKVPLQQNFQDNQFHGKWYVVGLAGNEVLREDKDPMKMWATIYELKEDKSYNVTIVMPLAEKCEYLFQTFVPGSQPGEFTLGGIKSGPGRTSGLVRVVSTNYNQHAMVFFKVVWQNREVFWVTLYGRTKELTSELKENFIRFSKSLGLPENHIVFPVPIDQCIDG
notes: Mutein of human NGAL (lipocalin 2); also called hNGAL mutein
Question: With B1 as the binder, how does the “In Vitro Neutralization Activity Assay, IC50 [nM] (cell-based hepcidin-induced internalization of ferroportin-GFP)” value [1] read?
Answer: The value was 25 nM.

Question: What about the IC50 [2] of the same binder?
Answer: The IC50 was 0.18 nM.

B2: hepcidin-specific lipocalin mutein of SEQ ID NO: 10 (designed binder)
chain: QDSTSDLIPAPPLSKVPLQQNFQDNQFHGKWYVVGLAGNEILREDKDPMKMWATIYELKEDRSYNVTIVMFLAKKCEYLFQTFVPGSQPGEFTLGDIKSSPGRTSGLVRVVSTNYNQHAMVFFKVVWQNREVFWITLYGRTKELTPELKENFIRFSKSLGLPENHIVFPVPIDQCIDGF
notes: as for B1
Question: Which results are given for B2?
Answer: In Vitro Neutralization Activity Assay, IC50 [nM] (cell-based hepcidin-induced internalization of ferroportin-GFP) [1]: 31 nM; IC50 [2]: 0.1 nM
